The record followed here is article PMC11055865, “Mechanism of DNA unwinding by MCM8-9 in complex with HROB”.

Series [1] concerns the target MCM8 R309D;MBP-MCM9 (human;human, UniProt Q9UJA3;Q9NXL9 1-840;1-1143, R309D|). In words: mass photometry; 1 mM ATP, 2 mM Mg acetate; heterodimer bound plus likely hexamer (Peak 4); EMSA: 25 mM Tris-acetate pH 7.5, 3 mM EDTA (or 4 mM ATP/ATPgS + 1 mM Mg acetate), 1 mM DTT, 0.1 mg/ml BSA, 1 nM DNA (100 ng for M13), 15 min on ice, gels at 4 C; mass photometry: 25 mM HEPES-NaOH pH 7.5, 2 mM Mg acetate, 1 mM ATP, room temperature. Particulars: protein: recombinant;recombinant; tags: N-terminal FLAG;N-terminal MBP (not cleaved); chain copies: 3;3; single strand. (A gel shift assay detects complexes by their altered migration in electrophoresis.)

For series [2], the target named is T1, HROB-FLAG (human, UniProt Q8N3J3-4 1-646, T126P).
T1 sequence: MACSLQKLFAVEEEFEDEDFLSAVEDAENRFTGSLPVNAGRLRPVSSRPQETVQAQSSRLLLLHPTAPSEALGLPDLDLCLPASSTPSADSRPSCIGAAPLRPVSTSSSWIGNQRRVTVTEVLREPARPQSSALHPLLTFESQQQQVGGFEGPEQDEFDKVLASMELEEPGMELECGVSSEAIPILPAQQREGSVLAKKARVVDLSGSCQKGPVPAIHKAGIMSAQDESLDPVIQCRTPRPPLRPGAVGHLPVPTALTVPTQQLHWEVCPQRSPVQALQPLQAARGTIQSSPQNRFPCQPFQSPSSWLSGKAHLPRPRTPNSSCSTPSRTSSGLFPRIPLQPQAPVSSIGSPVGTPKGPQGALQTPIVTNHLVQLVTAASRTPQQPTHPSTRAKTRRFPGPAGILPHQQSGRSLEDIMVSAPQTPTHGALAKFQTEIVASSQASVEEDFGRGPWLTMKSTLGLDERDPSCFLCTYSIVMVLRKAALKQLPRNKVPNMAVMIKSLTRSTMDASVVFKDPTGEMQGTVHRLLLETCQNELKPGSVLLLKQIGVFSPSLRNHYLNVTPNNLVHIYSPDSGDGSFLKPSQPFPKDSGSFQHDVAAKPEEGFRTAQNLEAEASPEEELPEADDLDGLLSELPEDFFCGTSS
As to the kind of experiment: EMSA; 3 mM EDTA; preferred; EMSA: 25 mM Tris-acetate pH 7.5, 3 mM EDTA (or 4 mM ATP/ATPgS + 1 mM Mg acetate), 1 mM DTT, 0.1 mg/ml BSA, 1 nM DNA (100 ng for M13), 15 min on ice, gels at 4 C; mass photometry: 25 mM HEPES-NaOH pH 7.5, 2 mM Mg acetate, 1 mM ATP, room temperature. The conditions noted are these: protein: recombinant, tags: C-terminal FLAG.

For series [3], the target named is T2, HROB-ΔOB (human, UniProt Q8N3J3-4 1-490+575-646, T126P;internal_change).
T2 sequence: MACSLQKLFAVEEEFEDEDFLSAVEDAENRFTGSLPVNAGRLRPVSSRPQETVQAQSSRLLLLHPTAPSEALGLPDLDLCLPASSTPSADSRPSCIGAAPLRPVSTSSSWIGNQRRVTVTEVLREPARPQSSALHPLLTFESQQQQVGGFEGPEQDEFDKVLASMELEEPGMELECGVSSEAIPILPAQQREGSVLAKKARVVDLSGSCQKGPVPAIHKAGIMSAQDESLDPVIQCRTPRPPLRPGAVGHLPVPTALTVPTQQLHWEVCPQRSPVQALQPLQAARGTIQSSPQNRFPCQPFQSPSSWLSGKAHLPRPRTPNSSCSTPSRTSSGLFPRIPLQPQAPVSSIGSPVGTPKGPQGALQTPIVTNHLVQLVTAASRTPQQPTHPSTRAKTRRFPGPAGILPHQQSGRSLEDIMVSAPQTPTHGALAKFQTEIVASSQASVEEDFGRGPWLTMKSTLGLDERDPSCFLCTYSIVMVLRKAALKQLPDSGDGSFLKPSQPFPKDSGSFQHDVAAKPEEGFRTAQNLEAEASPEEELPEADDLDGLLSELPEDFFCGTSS
As to the kind of experiment: EMSA; 3 mM EDTA; comparable to WT HROB; EMSA: 25 mM Tris-acetate pH 7.5, 3 mM EDTA (or 4 mM ATP/ATPgS + 1 mM Mg acetate), 1 mM DTT, 0.1 mg/ml BSA, 1 nM DNA (100 ng for M13), 15 min on ice, gels at 4 C; mass photometry: 25 mM HEPES-NaOH pH 7.5, 2 mM Mg acetate, 1 mM ATP, room temperature. Particulars: protein: recombinant; tags: FLAG; label: 3' 32P-dC (terminal transferase); single strand.

Series [4] addresses T1, HROB-FLAG. In words: EMSA; 3 mM EDTA; EMSA: 25 mM Tris-acetate pH 7.5, 3 mM EDTA (or 4 mM ATP/ATPgS + 1 mM Mg acetate), 1 mM DTT, 0.1 mg/ml BSA, 1 nM DNA (100 ng for M13), 15 min on ice, gels at 4 C; mass photometry: 25 mM HEPES-NaOH pH 7.5, 2 mM Mg acetate, 1 mM ATP, room temperature. Particulars: protein: recombinant; tags: C-terminal FLAG; label: 3' 32P-dC (terminal transferase); single strand.

Chain of MCM8 R309D;MBP-MCM9 (Q9UJA3 whole entry R309D, chain 1 of 2): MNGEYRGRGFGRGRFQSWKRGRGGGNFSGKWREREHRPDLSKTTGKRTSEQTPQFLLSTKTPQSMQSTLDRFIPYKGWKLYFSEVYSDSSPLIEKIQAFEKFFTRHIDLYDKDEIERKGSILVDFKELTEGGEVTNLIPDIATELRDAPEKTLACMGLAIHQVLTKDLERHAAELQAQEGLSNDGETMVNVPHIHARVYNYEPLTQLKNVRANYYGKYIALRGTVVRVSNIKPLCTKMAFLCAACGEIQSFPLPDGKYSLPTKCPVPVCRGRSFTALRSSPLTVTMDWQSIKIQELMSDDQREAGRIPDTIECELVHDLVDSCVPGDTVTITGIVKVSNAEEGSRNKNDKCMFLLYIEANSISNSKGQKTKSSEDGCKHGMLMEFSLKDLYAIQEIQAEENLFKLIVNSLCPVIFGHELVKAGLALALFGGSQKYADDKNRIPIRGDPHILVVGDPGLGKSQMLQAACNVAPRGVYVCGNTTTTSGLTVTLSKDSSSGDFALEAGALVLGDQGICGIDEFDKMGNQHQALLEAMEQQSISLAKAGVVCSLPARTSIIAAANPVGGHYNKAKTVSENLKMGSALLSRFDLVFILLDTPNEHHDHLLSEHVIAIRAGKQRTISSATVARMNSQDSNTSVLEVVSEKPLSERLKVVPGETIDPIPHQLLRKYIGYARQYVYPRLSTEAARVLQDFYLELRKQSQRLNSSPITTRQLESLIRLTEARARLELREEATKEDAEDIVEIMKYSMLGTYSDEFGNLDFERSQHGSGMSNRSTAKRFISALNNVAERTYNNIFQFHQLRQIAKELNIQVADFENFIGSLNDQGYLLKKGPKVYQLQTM
Chain of MCM8 R309D;MBP-MCM9 (Q9NXL9 whole entry, chain 2 of 2): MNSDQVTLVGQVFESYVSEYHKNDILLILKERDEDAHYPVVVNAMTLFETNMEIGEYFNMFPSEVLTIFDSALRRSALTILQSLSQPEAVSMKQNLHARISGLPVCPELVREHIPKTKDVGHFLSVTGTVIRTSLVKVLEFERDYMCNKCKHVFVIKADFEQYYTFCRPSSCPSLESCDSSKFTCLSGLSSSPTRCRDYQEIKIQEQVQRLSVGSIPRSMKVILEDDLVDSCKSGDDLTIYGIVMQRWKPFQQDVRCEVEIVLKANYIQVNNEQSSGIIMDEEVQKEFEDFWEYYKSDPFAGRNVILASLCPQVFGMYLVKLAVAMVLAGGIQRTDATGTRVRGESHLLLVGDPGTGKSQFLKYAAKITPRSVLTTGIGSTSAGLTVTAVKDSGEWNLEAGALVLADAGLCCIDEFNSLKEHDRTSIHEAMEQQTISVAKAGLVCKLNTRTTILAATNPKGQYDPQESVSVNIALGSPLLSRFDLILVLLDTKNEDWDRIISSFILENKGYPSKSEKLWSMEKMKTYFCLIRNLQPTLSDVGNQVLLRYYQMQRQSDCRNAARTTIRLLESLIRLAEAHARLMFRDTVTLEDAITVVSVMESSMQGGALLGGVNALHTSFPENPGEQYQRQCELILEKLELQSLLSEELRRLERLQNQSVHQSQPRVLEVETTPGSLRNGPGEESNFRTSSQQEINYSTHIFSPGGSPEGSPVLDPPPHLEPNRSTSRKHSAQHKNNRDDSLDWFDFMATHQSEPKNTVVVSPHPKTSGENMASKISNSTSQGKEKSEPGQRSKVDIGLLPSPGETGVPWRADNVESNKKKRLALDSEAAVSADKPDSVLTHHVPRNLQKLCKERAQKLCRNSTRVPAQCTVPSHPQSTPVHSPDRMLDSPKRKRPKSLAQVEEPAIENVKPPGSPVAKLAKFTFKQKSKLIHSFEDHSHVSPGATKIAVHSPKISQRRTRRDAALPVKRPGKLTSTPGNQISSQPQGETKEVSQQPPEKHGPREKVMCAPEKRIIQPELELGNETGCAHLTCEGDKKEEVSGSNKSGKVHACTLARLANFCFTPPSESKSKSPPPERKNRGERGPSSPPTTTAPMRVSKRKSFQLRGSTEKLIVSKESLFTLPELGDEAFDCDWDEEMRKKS

B1: PC216 (70 nt ssDNA) (ssDNA)
DNA: GTAAGTGCCGCGGTGCGGGTGCCAGGGCGTGCCCTTGGGCTCCCCGGGCGCGTACTCCACCTCATGCATC
Turning to B1, the binding result in series [1] was “binds”.

B2: Holliday junction (PC1253/PC1254/PC1255/PC1256) (structured_DNA)
DNA 1: TGGGTCAACGTGGGCAAAGATGTCCTAGCAATGTAATCGTCTATGACGTT
DNA 2: TGCCGAATTCTACCAGTGCCAGTGATGGACATCTTTGCCCACGTTGACCC
DNA 3: GTCGGATCCTCTAGACAGCTCCATGATCACTGGCACTGGTAGAATTCGGC
DNA 4: CAACGTCATAGACGATTACATTGCTACATGGAGCTGTCTAGAGGATCCGA
In the case of B2, the binding result in series [2] (label: 3' 32P-dC on PC1253, four-way junction 1:2 2:3 3:4 4:1) is on record as “binds”.

B3: Y-structure (PC1254/PC1253) (structured_DNA)
DNA 1: TGCCGAATTCTACCAGTGCCAGTGATGGACATCTTTGCCCACGTTGACCC
DNA 2: TGGGTCAACGTGGGCAAAGATGTCCTAGCAATGTAATCGTCTATGACGTT
With B3, the binding result in series [2] (label: 3' 32P-dC on PC1254, fork 1:2) is given as “binds”.

B4: X12-3 HJ3 (93 nt ssDNA) (ssDNA)
DNA: GAGATCTATCTGGTGCCTTCTGACAGTGAATGGGTAACGAATCGTAATAGTCTCTAGACAGCATGTCCTAGCAATGTAATCGTCTATGACGTC
Regarding B4, the binding result in series [3] and in series [4] was “binds” throughout.
